The target in this data set is rYY1 (UniProt Q00899 1-414). Nature of the data set: pull-down.
Sequence of rYY1 (Q00899 whole entry): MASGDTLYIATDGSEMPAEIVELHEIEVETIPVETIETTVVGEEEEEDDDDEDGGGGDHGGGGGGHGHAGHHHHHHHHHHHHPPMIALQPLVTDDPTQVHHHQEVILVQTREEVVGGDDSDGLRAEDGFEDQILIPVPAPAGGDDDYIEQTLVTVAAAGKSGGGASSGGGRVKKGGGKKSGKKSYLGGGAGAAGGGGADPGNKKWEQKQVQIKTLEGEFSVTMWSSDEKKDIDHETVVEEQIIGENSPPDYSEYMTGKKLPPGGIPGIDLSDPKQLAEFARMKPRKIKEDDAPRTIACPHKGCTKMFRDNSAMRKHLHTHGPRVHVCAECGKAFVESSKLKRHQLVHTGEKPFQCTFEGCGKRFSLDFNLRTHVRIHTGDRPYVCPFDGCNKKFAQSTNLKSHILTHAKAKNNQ

B1: NCR (dsDNA)
DNA 1: AGCTTAAGTAACGCCATTTTGCAAGGCA
DNA 2: TGCCTTGCAAAATGGCGTTACTTAAGCT
Regarding B1, the binding result is given as “binds”.

B2: NCRm (dsDNA)
DNA 1: AGCTTAAGTAATACGGCTATGCAAGGCA
DNA 2: TGCCTTGCATAGCCGTATTACTTAAGCT
Regarding B2, the binding result was “no binding”.

The values are drawn from publication PMC8456507.
